One data set concerns the target Arg411 (UniProt position 411, EELERRDVISH). Briefly: kinetics (anaerobic stopped-flow spectrophotometry). The following applies: 4 °C, 100 mM NaCl, 50 mM Bis-Tris propane (pH 6-9) or 50 mM CAPS (pH >9), 10% glycerol, reduced FAD (flavin hydroquinone) enzyme in complex with urocanate, folded (unfolding above pH 10.5 by CD).
The target of data set [1] is T1, UrdA′ (isolated FAD domain of urocanate reductase) (Shewanella oneidensis, UniProt Q8CVD0).
T1 construct: N-terminal FMN domain removed), C-terminal His tag, pET29b, E. coli BL21 (DE3); noncovalent FAD
Kind of data set: copurification; absorbance spectrum before and after SDS/heat release of FAD. It is filed as binding. The following applies: noncovalent; pH 7.

The text below walks through data of paper PMC10882135, “Rapid reaction studies on the chemistry of flavin oxidation in urocanate reductase” (The Journal of Biological Chemistry, 2024).

T1 sequence (Q8CVD0 130-582): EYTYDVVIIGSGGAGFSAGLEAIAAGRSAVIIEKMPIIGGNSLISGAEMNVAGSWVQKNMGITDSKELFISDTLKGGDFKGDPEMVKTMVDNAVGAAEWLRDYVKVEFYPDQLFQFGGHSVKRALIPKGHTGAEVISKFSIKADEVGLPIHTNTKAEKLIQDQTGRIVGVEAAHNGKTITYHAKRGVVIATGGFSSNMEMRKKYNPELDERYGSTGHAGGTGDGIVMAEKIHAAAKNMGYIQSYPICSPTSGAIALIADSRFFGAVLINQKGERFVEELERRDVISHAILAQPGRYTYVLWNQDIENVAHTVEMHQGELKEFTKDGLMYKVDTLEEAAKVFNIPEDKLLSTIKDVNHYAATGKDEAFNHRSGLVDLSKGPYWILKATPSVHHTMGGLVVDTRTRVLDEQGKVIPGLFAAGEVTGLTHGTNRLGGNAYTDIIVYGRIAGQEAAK

As usually defined, the pKa is the pH at which an ionisable group is half protonated. Compound “Urocanate reductase, isolated FAD-binding C-terminal domain (UrdA') (Shewanella oneidensis MR-1)” yielded a pKa with Arg411 of 9.4 ± 0.1.

`Cc1cc2nc3c(=O)[nH]c(=O)nc-3n(C[C@H](O)[C@H](O)[C@H](O)COP(=O)(O)OP(=O)(O)OC[C@H]3O[C@@H](n4cnc5c(N)ncnc54)[C@H](O)[C@@H]3O)c2cc1C` [FAD]: the “copurification; absorbance spectrum before and after SDS/heat release of FAD” value in data set [1] is “extinction coefficient of FAD bound to the variants was then calculated”.
